How the values were obtained:
[1] = system: mouse cells derived from the midbrain area; assay: scRNA-Seq and IHC of midbrain cells transduced by TTM-002; type: in vivo, SCID CB17 mice; details: for % GFP Cells/Cluster: AAV_TTM-002.GFP particles, GFP sorted midbrain cells; for % GFP Cells/Cluster / % Payload Cells/Cluster: 28 days; for % Payload Cells/Cluster: AAV_TTM-002.payload particles, midbrain scRNA-Seq
Description: AAV particles were generated with the TTM-002 capsid variant encapsulating a GFP transgene (AAV_TTM-002.GFP) or a payload driven by a heterologous CBA constitutive promoter (AAV_TTM-002.Payload).
Two tandem single cell RNA sequencing runs (scRNA-Seq) of mouse cells derived from the midbrain area were performed. In the first run, cells were pooled from two mice at day 28 post treatment with AAV_TTM-002.Payload particles. In the second run we treated with AAV_TTM-002.GFP particles, in the same manner but without xenografts. Orthotopic xenografts of MDA-MB-361-Luc #1 high passage cells grown as tumorspheres (in tumorsphere media; Sigma #C-28070) were injected (250,000 cells/2 μL/mouse) intracranially into 2-month old female SCID CB17 (Mutation: Icr-Prkdcscid/IcrIcoCrl) congenic immunodeficient mice (Charles River Laboratories). The injections were 2.5 mm (lateral),-1 mm (posterior) with respect to bregma, lowered-3 mm ventral and raised +0.5 mm dorsal to a final-2.5 mm ventral position. Two days later, dilutions of the AAV_TTM-002.Payload particles (run 1), or in the case without xenografts, dilutions of AAV_TTM-002.GFP particles (run 2) were prepared. IV injections of 100 μL (2.5e11 VG/animal) of the AAV_TTM-002.payload particles or AAV_TTM-002.GFP particles were administered through the tail veins of mice (n=5 mice per groups). At 7 days post-injection, mice from run 1 were imaged in an AmiHTX (Spectral Imager) for bioluminescence of the human tumor cells due to expression of luciferase in response to intraperitoneal luciferin injections.
At 28 days post-injection with the AAV_TTM-002.payload particles or AAV_TTM-002.GFP particles, two mice from each run were necropsied, brain samples were isolated, and the midbrain was dissected and isolated. The midbrain samples were then exposed to a cold protease inhibitor (Creative Biomart #NATE-0633) and were dissociated at 6 degrees centigrade. For the samples collected from the mice of run 1 (AAV_TTM-002.Payload particles), myelin depletion was performed (Miltenyi, #130-096-731), cells were filtered through a […] mesh to filter out neurons) and loaded on a 10X chromium G chip. scRNA-Seq was performed (10X Genomics) and samples were sequenced on a NextGen500 Sequencing machine (Illumina). For the samples collected from run 2 (AAV_TTM-002.GFP particles and no xenografts), the cells were not myelin depleted or filtered through […] mesh to include neurons. The cells isolated after run 2 were FACS sorted for GFP+/7AAD− (live GFP+ cells). The resultant cells were loaded on a 10× chromium G chip and the scRNA-Seq was run and processed (10× Genomics).
For run 1, the scRNA-Seq data was filtered to include cells with only greater than 1000 genes per cell and less than 5000, and less than 20 percent mitochondrial gene expression. For run 2, the scRNA-Seq data was filtered to include cells with only greater than 200 genes per cell and less than 5000, and less than 20 percent mitochondrial gene expression. The data were normalized, scaled, and integrated into one combined dataset. Clusters were generated with a resolution of 0.3 and each cluster identity was determined using a panel of cell type specific genes (e.g., as described in Brown et al., 2021. “Deep Parallel Characterization of AAV Tropism and AAV-Mediated Transcriptional Changes via Single-Cell RNA Sequencing”. Front. Immunol. 12:730825; the contents of which are hereby incorporated by reference in its entirety). The percentage of GFP sorted cells per cluster was calculated as was the percentage of payload expressing genes per cluster as parallel measures of TTM-002 transduction.

ALPL = molecular target: T1, ALPL (Homo sapiens, UniProt P05186); assay: Transcytosis assay of AAV particles in MDCK cells engineered to overexpress ALPL; type: cell-based; set-up: expressed in transfected cells; host or cells: MDCK (Madin-Darby Canine Kidney) cells; details: qPCR of bottom chamber
T1 sequence (P05186 18-501): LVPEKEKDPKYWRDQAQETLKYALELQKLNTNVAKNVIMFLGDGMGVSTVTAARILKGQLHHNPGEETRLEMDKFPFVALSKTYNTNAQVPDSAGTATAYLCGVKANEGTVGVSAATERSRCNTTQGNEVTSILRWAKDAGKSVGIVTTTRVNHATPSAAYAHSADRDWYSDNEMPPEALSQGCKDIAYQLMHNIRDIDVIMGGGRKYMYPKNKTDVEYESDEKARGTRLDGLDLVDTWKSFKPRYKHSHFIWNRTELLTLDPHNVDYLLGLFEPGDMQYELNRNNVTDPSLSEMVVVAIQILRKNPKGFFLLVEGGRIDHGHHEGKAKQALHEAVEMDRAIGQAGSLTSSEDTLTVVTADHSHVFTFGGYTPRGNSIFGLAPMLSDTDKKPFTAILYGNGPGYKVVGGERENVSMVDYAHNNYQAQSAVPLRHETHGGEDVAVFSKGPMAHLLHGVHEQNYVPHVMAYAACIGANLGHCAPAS

[2] = cluster Vascular smooth muscle cells (VSC)

B1: TTM-002: AAV9 capsid variant comprising HDSPHK (SEQ ID NO: 2) in loop IV (protein)
chain 1: MAADGYLPDWLEDNLSEGIREWWALKPGAPQPKANQQHQDNARGLVLPGYKYLGPGNGLDKGEPVNAADAAALEHDKAYDQQLKAGDNPYLKYNHADAEFQERLKEDTSFGGNLGRAVFQAKKRLLEPLGLVEEAAKTAPGKKRPVEQSPQEPDSSAGIGKSGAQPAKKRLNFGQTGDTESVPDPQPIGEPPAAPSGVGSLTMASGGGAPVADNNEGADGVGSSSGNWHCDSQWLGDRVITTSTRTWALPTYNNHLYKQISNSTSGGSSNDNAYFGYSTPWGYFDFNRFHCHFSPRDWQRLINNNWGFRPKRLNFKLFNIQVKEVTDNNGVKTIANNLTSTVQVFTDSDYQLPYVLGSAHEGCLPPFPADVFMIPQYGYLTLNDGSQAVGRSSFYCLEYFPSQMLRTGNNFQFSYEFENVPFHSSYAHSQSLDRLMNPLIDQYLYYLSKTINGHDSPHKSGQNQQTLKFSVAGPSNMAVQGRNYIPGPSYRQQRVSTTVTQNNNSEFAWPGASSWALNGRNSLMNPGPAMASHKEGEDRFFPLSGSLIFGKQGTGRDNVDADKVMITNEEEIKTTNPVATESYGQVATNHQSAQAQAQTGWVQNQGILPGMVWQDRDVYLQGPIWAKIPHTDGNFHPSPLMGGFGMKHPPPQILIKNTPVPADPPTAFNKDKLNSFITQYSTGQVSVEIEWELQKENSKRWNPEIQYTSNYYKSNNVEFAVNTEGVYSEPRPIGTRYLTRNL
chain 2: GHDSPHKSGQNQQT
[1]; brain samples, AAV_TTM-002.GFP
  IHC co-staining of GFP with cell markers: GFP co-localized with some but not all Olig2+ cells
[1]; cluster Astrocyte
  % GFP Cells/Cluster: 2.37%
  % Payload Cells/Cluster: 4.50%
[1]; cluster Committed Oligos-2
  % GFP Cells/Cluster: 0.00%
  % Payload Cells/Cluster: 0.00%
[1]; cluster Committed Oligos
  % GFP Cells/Cluster: 0.00%
  % Payload Cells/Cluster: 1.90%
[1]; cluster Endothelial-1
  % GFP Cells/Cluster: 3.45%
  % Payload Cells/Cluster: 3.09%
[1]; cluster Endothelial-2
  % GFP Cells/Cluster: 6.58%
  % Payload Cells/Cluster: 6.58%
[1]; cluster Macrophages
  % GFP Cells/Cluster: 0.00%
  % Payload Cells/Cluster: 0.00%
[1]; cluster Mature Oligos
  % GFP Cells/Cluster: 0.00%
  % Payload Cells/Cluster: 3.85%
[1]; cluster Microglia
  % GFP Cells/Cluster: 0.00%
  % Payload Cells/Cluster: 0.40%
[1]; cluster Oligodendrocytes
  % GFP Cells/Cluster: 0.00%
  % Payload Cells/Cluster: 0.00%
[1]; cluster Pericytes
  % GFP Cells/Cluster: 0.77%
  % Payload Cells/Cluster: 4.23%
[1]; cluster Vascular and leptomeningeal Cells (VLM)
  % GFP Cells/Cluster: 2.38%
[1]; cluster Vascular and leptomeningeal cells (VLM)
  % Payload Cells/Cluster: 0.00%
[1]; [2]
  % GFP Cells/Cluster: 1.03%
  % Payload Cells/Cluster: 1.72%
[1]; scRNA-Seq, AAV_TTM-002.Payload, day 28
  proportion of payload positive cells per cell type: endothelial cells had the highest proportion of payload positive cells
[1]; scRNA-Seq, GFP+ sorted cells, AAV_TTM-002.GFP, day 28
  proportion of GFP positive cells per cell type: endothelial cells had the highest proportion of GFP positive cells
ALPL
  transcytosis in MDCK cells that did not express ALPL: No transcytosis was observed

— patent publication US20260250318A1, “COMPOSITIONS AND METHODS FOR CROSSING THE BLOOD BRAIN BARRIER” (VOYAGER THERAPEUTICS, INC., priority 2022, published 2026)
